Results taken from patent US20200230184A1.

Biological target: human ApoB100 (human) (UniProt P04114)
Experiment: cell-based or functional assay

Sequence of UniProt P04114 (P04114 28-4563 limits assumed): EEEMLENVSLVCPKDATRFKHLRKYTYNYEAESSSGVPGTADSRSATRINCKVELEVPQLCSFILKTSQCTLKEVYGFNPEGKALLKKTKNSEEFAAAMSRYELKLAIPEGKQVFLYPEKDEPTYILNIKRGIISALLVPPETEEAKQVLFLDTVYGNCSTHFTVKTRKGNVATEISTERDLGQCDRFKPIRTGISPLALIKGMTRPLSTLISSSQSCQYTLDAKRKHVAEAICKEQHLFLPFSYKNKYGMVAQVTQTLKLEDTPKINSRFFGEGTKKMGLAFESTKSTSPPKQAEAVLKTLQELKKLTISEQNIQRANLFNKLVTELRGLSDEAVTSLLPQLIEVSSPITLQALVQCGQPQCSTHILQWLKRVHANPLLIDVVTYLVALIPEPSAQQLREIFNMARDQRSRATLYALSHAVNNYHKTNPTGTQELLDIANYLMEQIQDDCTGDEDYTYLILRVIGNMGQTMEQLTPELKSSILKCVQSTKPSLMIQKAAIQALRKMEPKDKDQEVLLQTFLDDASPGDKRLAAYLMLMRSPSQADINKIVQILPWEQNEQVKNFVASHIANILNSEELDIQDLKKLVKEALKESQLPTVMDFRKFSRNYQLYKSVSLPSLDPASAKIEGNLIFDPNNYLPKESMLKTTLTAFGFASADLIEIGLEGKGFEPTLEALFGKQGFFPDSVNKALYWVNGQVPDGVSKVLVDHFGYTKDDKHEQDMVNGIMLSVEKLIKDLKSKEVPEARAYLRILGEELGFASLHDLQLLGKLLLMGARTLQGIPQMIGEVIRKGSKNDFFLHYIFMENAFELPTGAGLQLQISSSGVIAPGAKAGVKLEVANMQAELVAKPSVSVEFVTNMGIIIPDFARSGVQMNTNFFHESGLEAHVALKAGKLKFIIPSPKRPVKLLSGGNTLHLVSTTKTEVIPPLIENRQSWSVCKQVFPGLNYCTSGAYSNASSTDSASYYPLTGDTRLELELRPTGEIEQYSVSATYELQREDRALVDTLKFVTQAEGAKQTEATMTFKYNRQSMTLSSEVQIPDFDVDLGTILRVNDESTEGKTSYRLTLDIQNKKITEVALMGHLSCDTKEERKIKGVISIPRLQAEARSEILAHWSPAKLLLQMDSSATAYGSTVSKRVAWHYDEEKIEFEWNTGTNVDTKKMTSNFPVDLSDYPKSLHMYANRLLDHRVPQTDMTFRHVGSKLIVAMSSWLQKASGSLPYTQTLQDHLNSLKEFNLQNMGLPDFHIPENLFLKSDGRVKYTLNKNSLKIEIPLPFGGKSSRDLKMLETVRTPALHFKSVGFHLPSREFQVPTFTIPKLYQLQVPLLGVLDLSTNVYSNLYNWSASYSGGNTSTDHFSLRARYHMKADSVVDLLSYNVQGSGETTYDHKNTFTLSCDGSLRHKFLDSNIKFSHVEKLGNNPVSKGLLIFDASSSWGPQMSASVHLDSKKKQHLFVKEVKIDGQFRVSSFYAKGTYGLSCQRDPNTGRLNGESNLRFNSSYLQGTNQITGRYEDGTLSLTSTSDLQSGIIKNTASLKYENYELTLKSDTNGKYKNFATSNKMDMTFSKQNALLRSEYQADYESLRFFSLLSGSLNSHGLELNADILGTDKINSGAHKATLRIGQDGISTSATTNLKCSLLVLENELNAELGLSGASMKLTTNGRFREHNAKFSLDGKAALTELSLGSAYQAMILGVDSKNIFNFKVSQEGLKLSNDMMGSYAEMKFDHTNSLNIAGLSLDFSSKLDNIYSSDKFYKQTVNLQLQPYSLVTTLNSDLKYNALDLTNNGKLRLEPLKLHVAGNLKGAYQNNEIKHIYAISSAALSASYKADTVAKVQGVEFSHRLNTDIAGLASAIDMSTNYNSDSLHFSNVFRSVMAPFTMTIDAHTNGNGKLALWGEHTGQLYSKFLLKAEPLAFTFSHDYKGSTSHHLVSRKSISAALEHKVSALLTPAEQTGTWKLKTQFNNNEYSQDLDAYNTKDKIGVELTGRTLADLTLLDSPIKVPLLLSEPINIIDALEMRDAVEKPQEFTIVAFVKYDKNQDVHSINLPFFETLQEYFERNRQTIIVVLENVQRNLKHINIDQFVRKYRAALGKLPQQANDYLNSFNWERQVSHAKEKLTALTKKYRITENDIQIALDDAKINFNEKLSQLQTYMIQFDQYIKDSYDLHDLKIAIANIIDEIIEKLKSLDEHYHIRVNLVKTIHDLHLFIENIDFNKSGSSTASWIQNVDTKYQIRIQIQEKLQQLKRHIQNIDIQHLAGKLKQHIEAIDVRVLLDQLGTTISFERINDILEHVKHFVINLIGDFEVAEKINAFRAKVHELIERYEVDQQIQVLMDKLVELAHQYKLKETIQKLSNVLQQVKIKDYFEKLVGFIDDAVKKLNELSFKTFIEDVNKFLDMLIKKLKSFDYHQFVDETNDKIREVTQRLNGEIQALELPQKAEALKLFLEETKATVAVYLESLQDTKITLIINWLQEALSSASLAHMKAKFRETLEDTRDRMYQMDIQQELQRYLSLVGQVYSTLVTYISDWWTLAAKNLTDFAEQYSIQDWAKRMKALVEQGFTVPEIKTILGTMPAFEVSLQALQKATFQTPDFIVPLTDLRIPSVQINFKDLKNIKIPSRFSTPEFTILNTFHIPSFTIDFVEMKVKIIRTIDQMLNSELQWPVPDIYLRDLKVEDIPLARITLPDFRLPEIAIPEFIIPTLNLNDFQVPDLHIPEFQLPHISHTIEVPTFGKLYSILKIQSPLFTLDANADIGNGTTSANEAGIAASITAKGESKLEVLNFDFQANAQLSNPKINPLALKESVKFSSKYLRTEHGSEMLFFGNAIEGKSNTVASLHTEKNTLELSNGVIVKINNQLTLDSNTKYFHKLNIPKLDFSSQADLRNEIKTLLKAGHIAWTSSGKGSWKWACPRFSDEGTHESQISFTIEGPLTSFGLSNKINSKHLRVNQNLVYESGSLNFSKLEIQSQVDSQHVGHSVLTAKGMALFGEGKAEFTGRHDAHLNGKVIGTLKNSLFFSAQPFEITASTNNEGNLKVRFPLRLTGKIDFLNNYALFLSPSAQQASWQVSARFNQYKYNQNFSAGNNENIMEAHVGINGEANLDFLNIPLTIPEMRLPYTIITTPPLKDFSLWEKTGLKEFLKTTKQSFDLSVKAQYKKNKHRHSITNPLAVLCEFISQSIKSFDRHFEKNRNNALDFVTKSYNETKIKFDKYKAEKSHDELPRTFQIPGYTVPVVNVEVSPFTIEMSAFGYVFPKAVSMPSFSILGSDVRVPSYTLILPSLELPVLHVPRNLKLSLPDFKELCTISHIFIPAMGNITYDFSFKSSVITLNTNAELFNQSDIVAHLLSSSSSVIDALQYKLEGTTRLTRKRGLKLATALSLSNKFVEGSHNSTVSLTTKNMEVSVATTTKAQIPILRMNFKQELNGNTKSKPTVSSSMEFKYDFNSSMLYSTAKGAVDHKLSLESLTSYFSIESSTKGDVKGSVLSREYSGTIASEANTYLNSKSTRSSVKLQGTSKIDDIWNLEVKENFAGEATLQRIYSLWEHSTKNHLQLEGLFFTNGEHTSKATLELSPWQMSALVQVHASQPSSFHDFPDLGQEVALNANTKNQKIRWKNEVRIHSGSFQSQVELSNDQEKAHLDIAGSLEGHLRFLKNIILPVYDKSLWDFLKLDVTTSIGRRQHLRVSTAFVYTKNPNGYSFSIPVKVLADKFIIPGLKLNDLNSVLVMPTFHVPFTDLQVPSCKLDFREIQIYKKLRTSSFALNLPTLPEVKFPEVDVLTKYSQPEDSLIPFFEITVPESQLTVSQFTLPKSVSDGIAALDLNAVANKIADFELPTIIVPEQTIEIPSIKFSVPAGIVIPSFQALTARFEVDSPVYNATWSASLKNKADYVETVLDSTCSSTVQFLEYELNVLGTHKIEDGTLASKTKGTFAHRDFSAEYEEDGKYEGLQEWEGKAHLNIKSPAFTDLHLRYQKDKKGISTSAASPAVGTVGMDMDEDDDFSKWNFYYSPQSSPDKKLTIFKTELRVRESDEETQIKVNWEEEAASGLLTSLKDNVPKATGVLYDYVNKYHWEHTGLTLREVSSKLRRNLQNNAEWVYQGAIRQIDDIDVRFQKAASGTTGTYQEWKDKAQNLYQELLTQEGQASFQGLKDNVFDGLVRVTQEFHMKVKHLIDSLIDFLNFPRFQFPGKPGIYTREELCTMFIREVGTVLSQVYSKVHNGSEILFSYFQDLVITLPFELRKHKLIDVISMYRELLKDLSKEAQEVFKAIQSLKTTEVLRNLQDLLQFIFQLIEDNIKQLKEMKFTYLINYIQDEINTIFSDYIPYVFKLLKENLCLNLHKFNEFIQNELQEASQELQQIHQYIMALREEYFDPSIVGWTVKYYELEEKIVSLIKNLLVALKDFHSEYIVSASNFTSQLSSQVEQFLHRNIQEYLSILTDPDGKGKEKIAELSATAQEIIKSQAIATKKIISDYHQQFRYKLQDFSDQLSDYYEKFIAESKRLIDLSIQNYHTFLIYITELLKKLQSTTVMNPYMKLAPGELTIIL

- reduction of serum cholesterol in LAHB mice after AAV8.TBG.hLDLR (% reduction of serum cholesterol): 30
Substance: human low density lipoprotein receptor (hLDLR) (from UniProt P01130 22-860)
